Measured values reported in the supplement of paper PMC10126150.
± gives the standard deviation of the averaged measurements.

Tested on: ATP
Assay: switch fluorescence ratio, 500 uM ATP over buffer (Cy3 cluster intensity, sum of 5 cycles each) (fold (ratio)); higher = stronger signal-on switching upon ATP binding; sequences stand for … in TCGTCGGCAGCGTCAGATGTGTATAAGAGACAGTTTTTTTTTTTTTTTTTTTTTTTTT…TC
Settings: aptamer strand: ATP DNA aptamer (quencher-CACCTGGGGGAGTATTGCGGAGGAAGG + anchor), 100 nM annealed; ATP concentration: 500 uM
Method in brief: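 Clusters with intensities outside 100-1000 RFU were excluded. The remaining Cy3-labelled switching-strand clusters on a modified Illumina MiSeq flow-cell had been annealed to 100 nM quencher-labelled ATP aptamer and imaged in selection buffer, then after 15 min with 500 uM ATP at 22 °C, for five cycles separated by NaOH stripping and re-annealing. The fluorescence ratio, averaged per switch-domain sequence, is each cluster's summed target-cycle Cy3 intensity over its summed buffer-cycle Cy3 intensity.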
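Further: ATP exposure 15 min at 22 °C before imaging.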

Row | Sequence | switch fluorescence ratio
1 | TGACGACGAG | 0.992 ± 0.052
2 | TGACGACTGT | 1 ± 0.021
3 | TGACGCAAGG | 2.8 ± 0.093
4 | TGACGCGGGG | 1.054 ± 0.0086
5 | TGACGCGTCA | 1.01 ± 0.013
6 | TGACGGAAGG | 1 ± 0.032
7 | TGACGGGGGC | 1.01 ± 0.014
8 | TGACGTAGTG | 0.991 ± 0.028
9 | TGACGTCGTA | 0.9689 ± 0.0094
10 | TGACGTGTTG | 1.02 ± 0.083
11 | TGACGTTAAA | 1.04 ± 0.067
12 | TGACGTTCGG | 0.978 ± 0.029
13 | TGACGTTGAG | 0.9868 ± 0.0056
14 | TGACGTTTGC | 1.03 ± 0.12
15 | TGACTAGTTT | 1.005 ± 0.0059
16 | TGACTCGGTG | 0.984 ± 0.015
17 | TGACTTAGTT | 0.999 ± 0.051
18 | TGACTTGCGT | 0.971 ± 0.042
19 | TGAGAACGCA | 1.2 ± 0.054
20 | TGAGAAGCAA | 1.34 ± 0.056
21 | TGAGAATTTT | 0.996 ± 0.032
22 | TGAGACAAGC | 1.05 ± 0.012
23 | TGAGAGGAGG | 1 ± 0.028
24 | TGAGAGGGGC | 0.973 ± 0.058
25 | TGAGAGGTTT | 0.9817 ± 0.0014

Row | Sequence | switch fluorescence ratio
26 | TGAGATGAAG | 1.005 ± 0.0085
27 | TGAGATTGC | 1.03 ± 0.053
28 | TGAGCAGGTT | 1.017 ± 0.0094
29 | TGAGCATGCT | 1 ± 0.021
30 | TGAGCGAAGG | 0.9807 ± 0.0057
31 | TGAGCGGAGG | 1.01 ± 0.002
32 | TGAGCGGATG | 0.994 ± 0.036
33 | TGAGCGGGAG | 1.0564 ± 0.00029
34 | TGAGCGGGGG | 0.996 ± 0.021
35 | TGAGCTAAAT | 1.18 ± 0.31
36 | TGAGCTATAT | 1.42 ± 0.077
37 | TGAGCTCACG | 1.02 ± 0.027
38 | TGAGCTTGGG | 0.99 ± 0.022
39 | TGAGGAATGG | 0.9987 ± 0.0036
40 | TGAGGATACA | 1.016 ± 0.0029
41 | TGAGGATATA | 0.9887 ± 0.0059
42 | TGAGGATGGG | 0.975 ± 0.026
43 | TGAGGCCCCG | 0.991 ± 0.025
44 | TGAGGCTATG | 1 ± 0.021
45 | TGAGGCTGGG | 1.02 ± 0.054
46 | TGAGGGATGA | 1.028 ± 0.0075
47 | TGAGGGCAGC | 0.993 ± 0.026
48 | TGAGGGCGAT | 1.033 ± 0.0019
49 | TGAGGGGAGA | 1.02 ± 0.028
50 | TGAGGGGAGG | 1.13 ± 0.15

Row | Sequence | switch fluorescence ratio
51 | TGAGGGGATG | 0.994 ± 0.023
52 | TGAGGGGGG | 1.01 ± 0.022
53 | TGAGGTAAGG | 0.997 ± 0.033
54 | TGAGGTACTA | 0.999 ± 0.053
55 | TGAGGTAGGG | 0.976 ± 0.053
56 | TGAGGTTAGA | 1.03 ± 0.029
57 | TGAGTAACGG | 1.02 ± 0.04
58 | TGAGTAAGGA | 1.03 ± 0.034
59 | TGAGTAAGGT | 0.995 ± 0.04
60 | TGAGTAATAG | 2.01 ± 0.87
61 | TGAGTAGCGT | 0.9631 ± 0.0063
62 | TGAGTCGGGA | 1.01 ± 0.014
63 | TGAGTCGTTG | 0.972 ± 0.01
64 | TGAGTGCTCT | 0.9733 ± 0.0062
65 | TGAGTGCTGC | 1.08 ± 0.075
66 | TGAGTGCTGG | 0.9741 ± 0.0017
67 | TGAGTGGACC | 0.992 ± 0.047
68 | TGAGTGGGTC | 1.03 ± 0.013
69 | TGAGTGTAGA | 1.07 ± 0.023
70 | TGAGTTTCGG | 0.9869 ± 0.0098
71 | TGATAAATTT | 1.01 ± 0.023
72 | TGATAAGGGG | 1.01 ± 0.039
73 | TGATACGCTA | 1.28 ± 0.23
74 | TGATACGGGG | 1.01 ± 0.026
75 | TGATAGAAGT | 1.01 ± 0.015

Row | Sequence | switch fluorescence ratio
76 | TGATAGAGTG | 1.01 ± 0.074
77 | TGATAGCGGA | 1.03 ± 0.035
78 | TGATAGGAAG | 1 ± 0.019
79 | TGATAGTAT | 0.96 ± 0.037
80 | TGATATGTGT | 0.973 ± 0.053
81 | TGATCATACT | 1.035 ± 0.0046
82 | TGATCATATG | 0.982 ± 0.068
83 | TGATCATGTT | 0.984 ± 0.037
84 | TGATCCAGGG | 0.9873 ± 0.0081
85 | TGATCGGGGT | 1.02 ± 0.018
86 | TGATCGTG | 1.01 ± 0.015
87 | TGATCTGTCG | 0.9814 ± 0.0086
88 | TGATGAAAAA | 1.01 ± 0.04
89 | TGATGAAAGA | 0.996 ± 0.021
90 | TGATGAAATG | 1.01 ± 0.049
91 | TGATGAATGG | 0.9899 ± 0.0092
92 | TGATGCAGAA | 1.036 ± 0.0041
93 | TGATGCATAA | 1.04 ± 0.034
94 | TGATGCTAGG | 1.01 ± 0.021
95 | TGATGCTTTT | 1.01 ± 0.035
96 | TGATGGATAA | 1.01 ± 0.027
97 | TGATGGCCGG | 1.05 ± 0.04
98 | TGATGGCTGC | 1.04 ± 0.013
99 | TGATGGGCAT | 1.01 ± 0.018
100 | TGATGGTGCC | 0.986 ± 0.014
